Common to all, as to conditions: both partners purified
One test concerns the target T1, MAP1LC3A ATG8 (human).
T1 construct: MAP1LC3A, ATG8 domain; source: E. coli BL21-Gold(DE3), purified (GSH or Ni2+ beads), tag removed by protease
Nature of the test: fluorescence polarisation; direct binding (saturation curve): 1:1 dilution series of the protein domain with 5 nM FITC-labelled peptide; room temperature; 50 mM sodium phosphate buffer pH 7.4; fitted to the quadratic equation. In general terms: In fluorescence polarisation assays a small probe gives low polarisation when free and higher when bound to something large.

The target in another test is T2, GABARAPL2 ATG8 (human).
T2 construct: GABARAPL2, ATG8 domain; source: E. coli BL21-Gold(DE3), purified (GSH or Ni2+ beads), tag removed by protease
The test is described as above.

Another test concerns the target MAP1LC3B ATG8 (human). The test is described as above.
A further test addresses T3, AP2 µ2 (human, UniProt Q96CW1 1-435).
T3 construct: AP-2 complex subunit mu (AP2 µ2); also called AP2 μ2; source: E. coli BL21-Gold(DE3), purified (GSH or Ni2+ beads), tag removed by protease
T3 sequence (looked up): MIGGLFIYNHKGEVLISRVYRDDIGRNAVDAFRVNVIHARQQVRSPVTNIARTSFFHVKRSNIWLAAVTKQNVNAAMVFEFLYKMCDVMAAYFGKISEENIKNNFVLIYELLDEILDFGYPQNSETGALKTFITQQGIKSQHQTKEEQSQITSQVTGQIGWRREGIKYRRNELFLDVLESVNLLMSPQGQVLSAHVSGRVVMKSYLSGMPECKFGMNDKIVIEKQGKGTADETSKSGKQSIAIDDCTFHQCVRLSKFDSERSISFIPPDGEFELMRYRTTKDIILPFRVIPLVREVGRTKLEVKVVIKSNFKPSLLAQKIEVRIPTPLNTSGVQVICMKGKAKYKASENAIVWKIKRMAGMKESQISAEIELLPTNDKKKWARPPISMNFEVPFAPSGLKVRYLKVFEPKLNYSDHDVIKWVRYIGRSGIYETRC
Described as above.

A further test has as its target T4, GGA1 VHS domain (human, UniProt Q9UJY5 17-147).
T4 construct: GGA1, VHS domain; source: E. coli BL21-Gold(DE3), purified (GSH or Ni2+ beads), tag removed by protease
T4 sequence (looked up): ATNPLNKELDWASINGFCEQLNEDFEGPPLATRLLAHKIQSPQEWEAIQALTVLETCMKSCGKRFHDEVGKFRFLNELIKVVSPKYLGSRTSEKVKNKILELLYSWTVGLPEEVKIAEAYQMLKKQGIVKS
Described as above.

A further test has as its target T5, GGA1 VHS (human, UniProt Q9UJY5 17-147).
T5 construct: GGA1 VHS domain; limits in Dataset EV3; construct limits are in Dataset EV3; also called GGA1 VHS domain; source: E. coli BL21-Gold(DE3), purified, tag removed
T5 sequence (looked up): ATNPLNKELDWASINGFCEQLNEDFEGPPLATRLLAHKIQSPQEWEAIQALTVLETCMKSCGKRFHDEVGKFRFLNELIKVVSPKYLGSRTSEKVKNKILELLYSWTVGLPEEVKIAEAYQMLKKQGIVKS
As to the kind of experiment: fluorescence polarisation; displacement of a FITC-labelled probe peptide (5 nM in the measurement) from the protein domain (1-2 fold over the probe's KD) by a dilution series of unlabelled peptide; room temperature; 50 mM sodium phosphate pH 7.4; KD calculated from the displacement curve; for KPNA4 ARM one probe for each pocket.

Test [1] has as its target T6, Clathrin N-terminal domain (NTD) (human, UniProt Q00610 1-364).
T6 construct: clathrin heavy chain, N-terminal domain; also called Clathrin NTD; CLTC-NTD; source: E. coli BL21-Gold(DE3), purified (GSH or Ni2+ beads), tag removed with protease
T6 sequence: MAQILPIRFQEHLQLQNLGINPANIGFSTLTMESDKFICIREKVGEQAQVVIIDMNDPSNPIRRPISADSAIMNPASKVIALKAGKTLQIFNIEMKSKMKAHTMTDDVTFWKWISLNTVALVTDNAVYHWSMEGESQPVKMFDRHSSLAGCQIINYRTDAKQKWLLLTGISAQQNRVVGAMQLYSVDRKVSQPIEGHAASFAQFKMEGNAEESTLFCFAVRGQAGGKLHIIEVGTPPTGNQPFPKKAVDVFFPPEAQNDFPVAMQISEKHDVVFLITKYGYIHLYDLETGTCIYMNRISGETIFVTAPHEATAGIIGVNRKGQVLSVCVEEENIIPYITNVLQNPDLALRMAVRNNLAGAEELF
Nature of the test: fluorescence polarisation; displacement: unlabelled peptide diluted 1:1 in series and added to a pre-formed complex of protein domain and FITC-labelled probe peptide (5 nM in the measurement); 50 mM sodium phosphate pH 7.4, room temperature; KD calculated from the displacement curves; technical triplicates.

The target of test [2] is T7, Clathrin N-terminal domain (NTD) (human, UniProt Q00610 1-364).
T7 construct: clathrin heavy chain, N-terminal domain; also called Clathrin NTD; CLTC-NTD; source: E. coli BL21-Gold(DE3), purified (GSH or Ni2+ beads), tag removed by protease
T7 sequence: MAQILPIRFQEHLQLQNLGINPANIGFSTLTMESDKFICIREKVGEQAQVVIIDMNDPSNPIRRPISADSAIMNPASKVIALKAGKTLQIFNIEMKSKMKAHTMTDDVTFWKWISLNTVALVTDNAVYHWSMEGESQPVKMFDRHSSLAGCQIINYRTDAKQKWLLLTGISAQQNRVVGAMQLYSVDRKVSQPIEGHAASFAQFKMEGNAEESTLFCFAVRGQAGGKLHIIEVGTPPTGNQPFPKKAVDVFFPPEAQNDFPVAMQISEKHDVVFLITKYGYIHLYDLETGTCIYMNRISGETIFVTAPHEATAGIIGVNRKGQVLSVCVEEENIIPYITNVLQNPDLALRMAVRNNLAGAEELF
Nature of the test: fluorescence polarisation; direct binding (saturation curve): 1:1 dilution series of the protein domain with 5 nM FITC-labelled peptide; room temperature; 50 mM sodium phosphate buffer pH 7.4; fitted to the quadratic equation.

The next test deals with T8, FITC-MYC (also: FITC label, position not given here).
T8 chain: PAAKRVKLD
The description is as above.

In a further test the target is T9, FITC-NCOR2 (also: FITC label, position not given here).
T9 chain: PKRTYDMMEGRVGRAI
Described as above.

The next test concerns the target T10, 14-3-3 Theta (human, UniProt P27348 1-245).
T10 sequence (looked up): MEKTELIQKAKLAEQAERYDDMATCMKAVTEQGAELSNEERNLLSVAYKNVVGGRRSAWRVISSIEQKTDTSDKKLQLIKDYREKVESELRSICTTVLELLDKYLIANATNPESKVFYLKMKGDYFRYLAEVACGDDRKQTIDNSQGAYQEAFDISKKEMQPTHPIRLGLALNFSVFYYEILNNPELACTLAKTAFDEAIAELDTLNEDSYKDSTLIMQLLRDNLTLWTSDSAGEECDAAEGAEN
Described as above.

The next test has as its target T11, RANBP2 RanBD4 (human).
T11 construct: the sheet prints 'RanBD1 4'); also called RANBP2 RanBD1 4; RAN2BP RanBD4; source: E. coli BL21-Gold(DE3), purified (GSH or Ni2+ beads), tag removed by protease
The test is described as above.

A further test has as its target T12, TSG101 UEV domain (human, UniProt Q99816 2-145).
T12 sequence (looked up): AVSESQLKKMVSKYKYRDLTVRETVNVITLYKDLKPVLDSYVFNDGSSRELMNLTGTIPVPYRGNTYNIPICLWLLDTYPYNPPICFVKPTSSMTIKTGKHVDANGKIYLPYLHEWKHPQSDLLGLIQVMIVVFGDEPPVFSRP
Described as above.

Test [3] concerns the target SNX27 PDZ domain, MBP-tagged (human, UniProt Q96L92 43-136). The test is described as above.
The target of the next test is T13, FITC-HIV1_Gag (HIV-1 (printed as HIV1), also: FITC label, position not given here).
T13 chain: SLYPPLTSLR
The test is described as above.

Drawing on paper PMC10333884 (Molecular Systems Biology, 2023), this text covers Kd for 15 molecules.

Non-standard residues stand in square brackets, D forms with d. No end group written: not given here. pS = N[C@@H](COP(=O)(O)O)C(=O)O

Usually Kd stands for the concentration at which binding is half-saturated. With DDDWTHLSSK (also: FITC label, position not given here) [FITC-SQSTM1], the Kd came out at 1.36 µM in the test with MAP1LC3A ATG8, 11 µM with GABARAPL2 ATG8 and 2.5 µM with MAP1LC3B ATG8.
FDTEYQRLEAS (also: FITC label, position not given here) [FITC-ATG9A] showed a Kd in the test with AP2 µ2 of 1.51 µM.
On to DDSDEDLLHI (also: FITC label, position not given here) [FITC-IGF2R], for which the equilibrium dissociation constant (Kd) with GGA1 VHS domain stood at 31 µM.
Turning to INLFEKEKEMKKSPTS (also: phosphoserine/threonine, site not given here) [GTSE1_(145–160), phosphorylated (pS)], the Kd with GGA1 VHS was 640 µM.

B1: GTSE1 692-707 peptide phosphorylated at S705 (peptide)
peptide: YGQLIDLSSPLIQL[pS]PE
notes: not part of GTSE1; G2 and S phase-expressed protein 1 (GTSE1), human, residues 692-707; also called pS705 GTSE1; source: synthetic peptide (Glbiochem or Genecust)
On to B1, for which the Kd in test [1] is 105 µM.
The molecule SVDLITFDSV (also: FITC label, position not given here) [FITC-NSP3] displayed a Kd in test [2] of 26 µM.

B2: KPNA4 ARM domain (domain or fragment)
chain: GDYRVQNTSLEAIVQNASSDNQGIQLSAVQAARKLLSSDRNPPIDDLIKSGILPILVHCLERDDNPSLQFEAAWALTNIASGTSEQTQAVVQSNAVPLFLRLLHSPHQNVCEQAVWALGNIIGDGPQCRDYVISLGVVKPLLSFISPSIPITFLRNVTWVMVNLCRHKDPPPPMETIQEILPALCVLIHHTDVNILVDTVWALSYLTDAGNEQIQMVIDSGIVPHLVPLLSHQEVKVQTAALRAVGNIVTGTDEQTQVVLNCDALSHFPALLTHPKEKINKEAVWFLSNITAGNQQQVQAVIDANLVPMIIHLLDKGDFGTQKEAAWAISNLTISGRKDQVAYLIQQNVIPPFCNLLTVKDAQVVQVVLDGLSNILKMAEDEAETIGNLIEECGGLEKIEQLQNHENEDIYKLAYEIIDQFFSSDDIDEDPSLVPEAIQGGTFGFNSSANVPTEGFQF
Take B2: the Kd in the test with FITC-MYC came out at 0.003 µM; with FITC-NCOR2, 0.013 µM.

B3: GTSE1 692-707 peptide phosphorylated at S699 (peptide)
peptide: YGQLIDLS[pS]PLIQLSPE
notes: not part of GTSE1; G2 and S phase-expressed protein 1 (GTSE1), human, residues 692-707; also called pS699 GTSE1; source: synthetic peptide (Glbiochem or Genecust)
For the molecule B3, the Kd in test [1] was 109 µM.
Regarding RQRSAP (also: FITC label, position not given here) [FITC-2BTP], the affinity with 14-3-3 Theta, expressed as Kd, was 27.8 µM.
On to KEALATPLPK (also: FITC label, position not given here) [FITC-C7orf25], for which, in the test with RANBP2 RanBD4, the Kd turned out to be 22 µM.
GLIPTAPPAD (also: FITC label, position not given here) [FITC-HIV2_Gag] came in with a Kd with TSG101 UEV domain of 1.9 µM.

B4: GTSE1 692-707 peptide phosphorylated at S698 (peptide)
peptide: YGQLIDL[pS]SPLIQLSPE
notes: not part of GTSE1; G2 and S phase-expressed protein 1 (GTSE1), human, residues 692-707; also called pS698 GTSE1; source: synthetic peptide (Glbiochem or Genecust)
On to B4, for which, in test [1], the dissociation constant (Kd) was 123 µM.

B5: GTSE1 692-707 peptide, unphosphorylated (peptide)
peptide: YGQLIDLSSPLIQLSPE
notes: not part of GTSE1; G2 and S phase-expressed protein 1 (GTSE1), human, residues 692-707; also called wild-type GTSE1; source: synthetic peptide (Glbiochem or Genecust)
In the case of B5, the Kd in test [1] was 91 µM.
As to GSLEMETAFNSRGFED (also: FITC label, position not given here) [FITC-SYT16], the affinity in [3], expressed as Kd, was 7.5 µM.

B6: PDCD6IP Alix V domain (domain or fragment)
chain: PVSVQQSLAAYNQRKADLVNRSIAQMREATTLANGVLASLNLPAAIEDVSGDTVPQSILTKSRSVIEQGGIQTVDQLIKELPELLQRNREILDESLRLLDEEEATDNDLRAKFKERWQRTPSNELYKPLRAEGTNFRTVLDKAVQADGQVKECYQSHRDTIVLLCKPEPELNAAIPSANPAKTMQGSEVVNVLKSLLSNLDEVKKEREGLENDLKSVNFDMTSKFLTALAQDGVINEEALSVTELDRVYGGLTTKVQESLKKQEGLLKNIQVSHQEFSKMKQSNNEANLREEVLKNLATAYDNFVELVANLKEGTKFYNELTEILVRFQNKCSDIVFARKTER
In the test with FITC-HIV1_Gag, B6 came in with a Kd of 3.6 µM.
